Assay results taken from patent US11857601.

Key:
[1] = molecular target: hIL2Rβ; assay: literature reference; Charych, PLOS ONE 2017
[2] = molecular target: hIL2Rα; assay: literature reference; Charych, PLOS ONE 2017
[3] = molecular target: hIL2Rβ; assay: literature reference; Stauber, PNAS 2006
[4] = molecular target: hIL2Rα; assay: literature reference; Stauber, PNAS 2006

| Kd [1] [nM] | Kd [2] [nM] | Kd [3] [nM] | Kd [4] [nM] | Substance |
| --- | --- | --- | --- | --- |
| 1770 | 190 |  |  | NKTR-214 (1-PEG-IL2) |
| 3950 | 487 |  |  | NKTR-214 (2-PEG-IL2) |
| 239 | 8.6 |  |  | NKTR-214 (IL2) |
|  |  | 144 | 10 | hIL2w |
